Reference: patent publication US7452534

What was measured:
[1] = target: T1, recombinant human soluble CD4 (human, UniProt P01730 26-394, limits assumed); test: SPR
T1 construct: Soluble form; also called sCD4

[2] = target: T2, human CD4 on cells (human, UniProt P01730 26-458); test: cell-based or functional assay
[3] = target: T2, human CD4 on cells; test: cell-based or functional assay; remark: listed apart in the source
[4] = target: T1, recombinant human soluble CD4; test: SPR (BIAcore), soluble CD4 on immobilized mAb, 25 C
Method: (§1) The stoichiometry of binding of soluble CD4 to immobilized mAbs can be determined by saturation binding experiments on BIAcore (Pharmacia). Data for the association and dissociation phases of the SPR progress (FIG. 19) were analyzed directly using the integrated form of the rate equations as described in O'Shannessey et al., Anal. Biochem., 212: 467-468 (1993). […] Thus, the stoichiometry of CD4 binding was the same for all mAbs and close to the theoretical value of 2.0.

[5] = target: T1, recombinant human soluble CD4; test: SPR (BIAcore) saturation binding of soluble CD4 to immobilized mAb
Method: as §1

[6] = target: T3, human C1q (human, UniProt P02745 23-245; P02746 28-253; P02747 29-245); test: C1q binding (summary table of effector functions)
T3 construct: also called Clq

[7] = target: T4, chimpanzee CD4 on lymphocytes (chimpanzee, UniProt P16004 26-458); test: flow cytometry of blood of chimpanzees dosed at 1.5 mg/kg
T4 construct: whole, on cells
Method: Six chimpanzees were examined for depletion of CD4^+ T cells and/or modulation of the CD4 receptor from the cell surface after infusions of increasing doses of antibody CE9γ4PE, up to 15 mg/kg. Peripheral blood samples were taken from each chimpanzee three weeks and two weeks prior to the start of the study to establish baseline levels for CD4^+ T cells. In addition to CD4^+ cells, CD3^+ and CD8^+ cell levels were also measured by flow cytometry. […] By subtraction of CD8^+ counts from total CD3^+ counts a theoretical value for the number of CD4^+ T cells could be calculated. By comparing this value with the CD4^+ cells measured suing OKT4, CD4 receptor modulation could be distinguished from CD4^+ cell depletion.

T3 sequence (P02745 23-245 limits assumed, chain 1 of 3): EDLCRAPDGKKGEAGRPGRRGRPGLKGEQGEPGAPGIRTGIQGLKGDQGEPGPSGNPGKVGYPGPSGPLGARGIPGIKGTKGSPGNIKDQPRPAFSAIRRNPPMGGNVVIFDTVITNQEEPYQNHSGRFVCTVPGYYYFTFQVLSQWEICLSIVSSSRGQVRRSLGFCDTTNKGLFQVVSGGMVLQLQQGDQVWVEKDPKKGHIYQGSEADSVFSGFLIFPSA
T3 sequence (P02746 28-253 limits assumed, chain 2 of 3): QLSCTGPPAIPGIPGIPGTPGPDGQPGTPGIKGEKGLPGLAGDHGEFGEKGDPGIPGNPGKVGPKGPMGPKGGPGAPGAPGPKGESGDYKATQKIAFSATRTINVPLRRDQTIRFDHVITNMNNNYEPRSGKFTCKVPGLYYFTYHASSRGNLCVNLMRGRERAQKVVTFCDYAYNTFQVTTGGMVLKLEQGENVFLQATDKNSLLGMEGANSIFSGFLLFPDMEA
T3 sequence (P02747 29-245 limits assumed, chain 3 of 3): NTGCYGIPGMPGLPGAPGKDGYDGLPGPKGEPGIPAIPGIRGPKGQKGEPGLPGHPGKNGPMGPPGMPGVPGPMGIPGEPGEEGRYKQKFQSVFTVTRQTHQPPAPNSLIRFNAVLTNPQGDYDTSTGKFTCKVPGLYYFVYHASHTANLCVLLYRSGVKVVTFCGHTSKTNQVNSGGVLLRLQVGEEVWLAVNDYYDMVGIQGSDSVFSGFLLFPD
T4 sequence (P16004 26-458): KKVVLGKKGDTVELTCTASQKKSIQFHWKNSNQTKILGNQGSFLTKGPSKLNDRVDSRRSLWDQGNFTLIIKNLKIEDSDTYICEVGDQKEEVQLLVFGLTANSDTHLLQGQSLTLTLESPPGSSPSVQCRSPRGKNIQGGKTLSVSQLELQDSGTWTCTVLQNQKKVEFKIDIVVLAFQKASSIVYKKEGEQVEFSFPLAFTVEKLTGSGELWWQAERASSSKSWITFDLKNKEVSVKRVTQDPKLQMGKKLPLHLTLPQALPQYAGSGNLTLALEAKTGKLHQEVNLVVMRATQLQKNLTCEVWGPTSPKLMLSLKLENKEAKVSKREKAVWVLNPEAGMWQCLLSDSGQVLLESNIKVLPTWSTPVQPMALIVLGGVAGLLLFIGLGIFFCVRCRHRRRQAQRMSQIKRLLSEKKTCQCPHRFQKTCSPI

Binder	Kd [1] [nM]	inhibition of human MLR (proliferation and IL-2 production), IC50 [2] [µg/mL]	MLR IL-2 Production (IC50) [3] [µg/mL]	MLR Proliferation (IC50) [3] [µg/mL]	Kd [4] [nM]	BIAcore Stoichiometry [5] [moles CD4/mole mAb]	binding result [6]	binding result [7]
CE9.1, monkey/human chimeric anti-CD4 monoclonal antibody (cynomolgus variable domains, human gamma 1 / lambda constant regions) (antibody, domain: gamma 1 constant region; the entries may be DNA and may hold a leader; also called mAb CE9.1; monkey/human recombinant antibody (ATCC No. 69030)) heavy: not shown light: SYELSQPRSVSVSPGQTAGFTCGGDNVGRKSVQWYQQKPPQAPVLVIYADSERPSGIPARFSGSNSGNTATLTISGVEAGDEADYYCQVWDSTADHWVFGGGTRLTVLGQPKAAPSVTLFPPSSEELQANKATLVCLISDFYPGAVTVAWKADSSPVKAGVETTTPSKQSNNKYAASSYLSLTPEQWKSHRSYSCQVTHEGSTVEKTVAPTECS	1	0.01 to 0.03	0.005	0.02	0.99	1.56	–	–
CE9γ4E, chimeric anti-CD4 antibody with human gamma 4 constant domain carrying the E modification (L236E) (antibody, human IgG4, lambda, IgG4 (L236E; 248 Kabat numbering) lambda; also called CE9γ4E(G4E); CE9γE) heavy: not shown light: SYELSQPRSVSVSPGQTAGFTCGGDNVGRKSVQWYQQKPPQAPVLVIYADSERPSGIPARFSGSNSGNTATLTISGVEAGDEADYYCQVWDSTADHWVFGGGTRLTVLGQPKAAPSVTLFPPSSEELQANKATLVCLISDFYPGAVTVAWKADSSPVKAGVETTTPSKQSNNKYAASSYLSLTPEQWKSHRSYSCQVTHEGSTVEKTVAPTECS	–	–	0.01	0.02	1.43	1.72	–	–
CE9γ4, chimeric anti-CD4 antibody with human gamma 4 constant domain (antibody, human IgG4, lambda, IgG4 lambda; also called CE9γ4(G4); anti-CD4 (G4, L, Oz-)) heavy: not shown light: SYELSQPRSVSVSPGQTAGFTCGGDNVGRKSVQWYQQKPPQAPVLVIYADSERPSGIPARFSGSNSGNTATLTISGVEAGDEADYYCQVWDSTADHWVFGGGTRLTVLGQPKAAPSVTLFPPSSEELQANKATLVCLISDFYPGAVTVAWKADSSPVKAGVETTTPSKQSNNKYAASSYLSLTPEQWKSHRSYSCQVTHEGSTVEKTVAPTECS	–	–	0.005	0.02	1.34	1.61	–	–
CE9γ4PE, chimeric anti-CD4 antibody with human gamma 4 constant domain carrying the P and E modifications (S229P, L236E) (antibody, human IgG4 S228P, lambda, IgG4 (S229P, L236E; 241 and 248 Kabat numbering) lambda, expressed in CHO; also called CE97PE(G4PE); CE9-4PE) heavy: not shown light: SYELSQPRSVSVSPGQTAGFTCGGDNVGRKSVQWYQQKPPQAPVLVIYADSERPSGIPARFSGSNSGNTATLTISGVEAGDEADYYCQVWDSTADHWVFGGGTRLTVLGQPKAAPSVTLFPPSSEELQANKATLVCLISDFYPGAVTVAWKADSSPVKAGVETTTPSKQSNNKYAASSYLSLTPEQWKSHRSYSCQVTHEGSTVEKTVAPTECS	–	–	–	0.02	1.09	–	no binding	binds
CE9γ4λK, chimeric anti-CD4 antibody with human gamma 4 heavy chain constant domain and human kappa light chain constant region (antibody, also called CE9γ4XK; CE9γ4K) heavy: not shown light: SYELSQPRSVSVSPGQTAGFTCGGDNVGRKSVQWYQQKPPQAPVLVIYADSERPSGIPARFSGSNSGNTATLTISGVEAGDEADYYCQVWDSTADHWVFGGGTRLTVLG	–	–	–	–	1.08	1.67	–	–
